IntAct's records for PubMed 23706744

B1: Protein arginine N-methyltransferase 1 (Saccharomyces cerevisiae), P38074 (parent)
chain: MSKTAVKDSATEKTKLSESEQHYFNSYDHYGIHEEMLQDTVRTLSYRNAIIQNKDLFKDKIVLDVGCGTGILSMFAAKHGAKHVIGVDMSSIIEMAKELVELNGFSDKITLLRGKLEDVHLPFPKVDIIISEWMGYFLLYESMMDTVLYARDHYLVEGGLIFPDKCSIHLAGLEDSQYKDEKLNYWQDVYGFDYSPFVPLVLHEPIVDTVERNNVNTTSDKLIEFDLNTVKISDLAFKSNFKLTAKRQDMINGIVTWFDIVFPAPKGKRPVEFSTGPHAPYTHWKQTIFYFPDDLDAETGDTIEGELVCSPNEKNNRDLNIKISYKFESNGIDGNSRSRKNEGSYLMH
partner: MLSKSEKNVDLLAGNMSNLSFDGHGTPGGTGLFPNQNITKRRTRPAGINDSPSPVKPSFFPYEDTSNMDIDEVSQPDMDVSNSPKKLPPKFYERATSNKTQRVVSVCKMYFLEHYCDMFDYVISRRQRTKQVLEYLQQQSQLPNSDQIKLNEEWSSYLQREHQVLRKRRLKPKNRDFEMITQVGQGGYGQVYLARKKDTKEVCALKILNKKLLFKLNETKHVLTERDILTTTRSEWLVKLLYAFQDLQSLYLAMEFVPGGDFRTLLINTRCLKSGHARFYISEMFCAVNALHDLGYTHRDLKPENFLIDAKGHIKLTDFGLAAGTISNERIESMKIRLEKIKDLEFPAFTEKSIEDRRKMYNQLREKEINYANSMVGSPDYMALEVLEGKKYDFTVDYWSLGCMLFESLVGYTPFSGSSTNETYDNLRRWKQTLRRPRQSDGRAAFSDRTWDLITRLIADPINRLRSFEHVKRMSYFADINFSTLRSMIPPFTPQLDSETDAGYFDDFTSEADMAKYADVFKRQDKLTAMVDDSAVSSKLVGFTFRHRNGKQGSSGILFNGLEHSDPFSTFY
B2: Protein arginine N-methyltransferase 1 (Saccharomyces cerevisiae), P38074 (parent)
chain: B1 chain

Variants of: B1
Conditions: with dbf2_yeast DBF2, P22204

Variant | effect of a mutation on the interaction
MSKTAVKDAATEKTKLSESEQHYFNSYDHYGIHEEMLQDTVRTLSYRNAIIQNKDLFKDKIVLDVGCGTGILSMFAAKHGAKHVIGVDMSSIIEMAKELVELNGFSDKITLLRGKLEDVHLPFPKVDIIISEWMGYFLLYESMMDTVLYARDHYLVEGGLIFPDKCSIHLAGLEDSQYKDEKLNYWQDVYGFDYSPFVPLVLHEPIVDTVERNNVNTTSDKLIEFDLNTVKISDLAFKSNFKLTAKRQDMINGIVTWFDIVFPAPKGKRPVEFSTGPHAPYTHWKQTIFYFPDDLDAETGDTIEGELVCSPNEKNNRDLNIKISYKFESNGIDGNSRSRKNEGSYLMH [S9A] | disrupting interaction strength

Variants of: B2
Conditions: with pp2a2_yeast PPH22, P23595
Chain of pp2a2_yeast PPH22, P23595 (P23595 whole entry): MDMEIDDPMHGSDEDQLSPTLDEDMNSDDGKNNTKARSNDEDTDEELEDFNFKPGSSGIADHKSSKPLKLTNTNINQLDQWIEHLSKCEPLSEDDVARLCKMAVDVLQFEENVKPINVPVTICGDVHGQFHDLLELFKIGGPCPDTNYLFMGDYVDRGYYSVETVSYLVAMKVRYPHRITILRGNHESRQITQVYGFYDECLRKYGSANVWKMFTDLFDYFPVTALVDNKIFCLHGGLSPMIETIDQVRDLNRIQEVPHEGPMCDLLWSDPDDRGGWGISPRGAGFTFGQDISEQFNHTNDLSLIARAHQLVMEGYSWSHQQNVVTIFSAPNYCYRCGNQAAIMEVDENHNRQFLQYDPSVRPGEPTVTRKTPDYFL

Variant | effect of a mutation on the interaction
MSKTAVKDAATEKTKLSESEQHYFNSYDHYGIHEEMLQDTVRTLSYRNAIIQNKDLFKDKIVLDVGCGTGILSMFAAKHGAKHVIGVDMSSIIEMAKELVELNGFSDKITLLRGKLEDVHLPFPKVDIIISEWMGYFLLYESMMDTVLYARDHYLVEGGLIFPDKCSIHLAGLEDSQYKDEKLNYWQDVYGFDYSPFVPLVLHEPIVDTVERNNVNTTSDKLIEFDLNTVKISDLAFKSNFKLTAKRQDMINGIVTWFDIVFPAPKGKRPVEFSTGPHAPYTHWKQTIFYFPDDLDAETGDTIEGELVCSPNEKNNRDLNIKISYKFESNGIDGNSRSRKNEGSYLMH [S9A] | disrupting interaction strength
